Laboratory results taken from article PMC6719045, “Analysis of IFITM-IFITM Interactions by a Flow Cytometry-Based FRET Assay” (International Journal of Molecular Sciences, 2019).

Target: T1, IFITM3-wt fused to SCFP or SYFP (interferon-induced transmembrane protein 3) (UniProt Q01628 1-133)
T1 construct: interferon-induced transmembrane protein 3 (IFITM3), wild type; One molecule stands for both FRET copies (SCFP3A fusion and SYFP2 fusion); also called SxFP-IFITM3; IFTIM3; source: 293T, transiently transfected, in cells; not shown: SCFP3A or SYFP2, N-terminal, kept
T1 sequence (Q01628 whole entry, the tested form may be a part): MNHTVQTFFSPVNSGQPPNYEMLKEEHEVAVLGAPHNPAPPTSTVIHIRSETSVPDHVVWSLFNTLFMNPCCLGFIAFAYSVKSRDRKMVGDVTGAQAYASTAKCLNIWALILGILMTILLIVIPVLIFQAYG
Assay: FRET or BRET; FACS-FRET in 293T cells at 48 h post transfection with titrated amounts of plasmids, total DNA kept constant with empty pCAGGS (Figure 2D)
Details: partners not purified

B1: IFITM1 fused to SCFP or SYFP (interferon-induced transmembrane protein 1) (natural protein, UniProt P13164 1-125, looked up)
chain: MHKEEHEVAVLGPPPSTILPRSTVINIHSETSVPDHVVWSLFNTLFLNWCCLGFIAFAYSVKSRDRKMVGDVTGAQAYASTAKCLNIWALILGILMTIGFILLLVFGSVTVYHIMLQIIQEKRGY
notes: interferon-induced transmembrane protein 1 (IFITM1); One molecule stands for both FRET copies: one carries SCFP3A (donor), the other SYFP2 (acceptor); also called SCFP3A-IFITM1; SYFP2-IFITM1; source: 293T, transiently transfected, in cells; not shown: SCFP3A or SYFP2, N-terminal, kept
  percent of FRET-positive cells: ~20%
